Measured values as given in publication PMC10698503 (Molecular Systems Biology, 2023).
Non-standard residues stand in square brackets, D forms with d. No end group written: not given here. pS = N[C@@H](COP(=O)(O)O)C(=O)O

Key:
His-PP1γ [1] = biological target: T1, His-PP1γ (UniProt P36873 1-323); assay: ITC; peptide (approximately 450 µM, syringe) titrated into PP1γ (~35 µM, cell); 25°C; 50 mM sodium phosphate, 150 mM NaCl, 0.5 mM TCEP, pH 7.5; single-site model; settings: both partners purified
T1 construct: PP1γ, catalytic subunit of protein phosphatase 1, gamma isoform; D1:p17 gives a molecular weight of 36965 Da for PP1; also called PP1g
T1 sequence (P36873 whole entry, canonical isoform): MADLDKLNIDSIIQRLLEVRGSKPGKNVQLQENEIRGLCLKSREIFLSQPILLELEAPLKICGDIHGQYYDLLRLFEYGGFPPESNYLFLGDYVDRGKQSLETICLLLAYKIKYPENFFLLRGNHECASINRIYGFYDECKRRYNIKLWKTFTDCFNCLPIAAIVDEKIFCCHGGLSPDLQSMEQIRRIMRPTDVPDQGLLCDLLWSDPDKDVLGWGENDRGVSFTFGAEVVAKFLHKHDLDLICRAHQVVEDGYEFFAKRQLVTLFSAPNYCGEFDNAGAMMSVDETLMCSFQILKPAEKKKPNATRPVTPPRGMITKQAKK

His-PP1γ [2] = biological target: His-PP1γ (UniProt P36873 1-323); assay: as above; settings: both partners purified
Target sequence in this assay (P36873 whole entry, canonical isoform): as above

Kd (His-PP1γ [1]) [nM] | Kd (His-PP1γ [2]) [nM] | Binder
190 ± 10 | – | AKNSRVTFSEDDEIW [Nipp1 197-209 peptide AKNSRVTFSEDDEIW]
120 ± 10 | – | KLNSKRVSFKLPKDQW (KNL1 (CASC5) 1441-1455 by the label; also called CASC5; source: synthetic peptide, bought: Peptide 2.0 Inc) [KNL1 1441-1455 peptide KLNSKRVSFKLPKDQW]
– | 1360 ± 10 | RRSPRI[pS]FFLEKENEW [Sororin 73-91 pS83 peptide RRSPRI(pS)FFLEKENEW]
2530 ± 110 | – | PRRSPRISFFLEKENEPPGREW (Sororin (CDCA5) 76-96 by the label; also called CDCA5; source: synthetic peptide, bought: Peptide 2.0 Inc) [Sororin 76-96 peptide PRRSPRISFFLEKENEPPGREW]
